The values that follow come from patent US20050032245A1 (Harvard, published 2005).

In assay [1] the target is T1, MBP-UL42Δ340 (truncated UL42 processivity subunit of HSV DNA polymerase as maltose binding protein fusion) (herpes simplex virus, UniProt P10226 1-339, N-terminal MBP fusion, not carried in the letters).
T1 construct: Expressed in E. coli BL21(de3)pLysS and purified over amylose; also called wt UL42; HSV MBP-UL42
T1 sequence: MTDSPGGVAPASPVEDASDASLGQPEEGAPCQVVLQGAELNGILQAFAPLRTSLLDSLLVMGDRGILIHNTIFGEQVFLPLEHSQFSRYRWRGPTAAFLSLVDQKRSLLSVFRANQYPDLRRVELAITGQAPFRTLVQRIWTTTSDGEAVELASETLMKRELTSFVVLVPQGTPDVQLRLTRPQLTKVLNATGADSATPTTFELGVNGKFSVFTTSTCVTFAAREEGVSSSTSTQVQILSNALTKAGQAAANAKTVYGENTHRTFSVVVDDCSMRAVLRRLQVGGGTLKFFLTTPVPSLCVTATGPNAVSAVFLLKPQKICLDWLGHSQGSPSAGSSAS
Nature of the assay: fluorescence polarization; MBP-UL42 titrated (1 to 50 µM) into 1 nM labeled peptide, Hofstee transformation. On the technique in general: In fluorescence polarisation assays a small probe gives low polarisation when free and higher when bound to something large.

In assay [2] the target is T1, MBP-UL42Δ340 (truncated UL42 …). Nature of the assay: fluorescence polarization competition; peptide A displaces labeled peptide E from 7 µM UL42, Hill equation.

Oregon Green 514 = pentafluorofluorescein derivative

B1: Oregon Green 514-labeled peptide E (18 C-terminal amino acids of HSV Pol) (peptide)
peptide: {Oregon Green 514}-ATAEETRRMLHRAFDTLA-NH2
notes: also called Oregon Green-peptide E; labeled tracer
Consider B1, for which, in assay [1], the Kd (commonly the constant that tells how readily two partners part at equilibrium) worked out at 5 µM.

B2: peptide A (36-mer derived from the C-terminus of HSV Pol) (peptide)
peptide: DDVAARLRTAGFGAVGAGATAEETRRMLHRAFDTLA
notes: also called 36-mer peptide A; unlabeled peptide A
As to B2, the IC50 (commonly the concentration that inhibits the measured activity by half) in assay [2] is around 6 µM.
